Test [1] deals with T1, hen egg lysozyme (Gallus gallus (hen egg white), UniProt P00698). Kind of test: flow cytometry on cells.
The target of test [2] is T1, hen egg lysozyme. Kind of test: ELISA. (In an ELISA, binding on a coated surface is turned into a signal by an enzyme label.)
Test [3] addresses T1, hen egg lysozyme. Kind of test: BLI. Background: In BLI a coated tip is dipped into the sample, and binding shifts an interference pattern.

Positions count from the first letter of the chain named.

T1 sequence (P00698 19-147): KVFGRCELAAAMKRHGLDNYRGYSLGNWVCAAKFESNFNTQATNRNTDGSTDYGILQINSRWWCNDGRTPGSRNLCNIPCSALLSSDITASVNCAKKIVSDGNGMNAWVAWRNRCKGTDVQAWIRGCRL

B1: HEL23 (antibody, V domains shown)
VH: EVQLQQSGAELMKPGASVKISCKATGYTFSNYWIGWVKQRPGHGLEWIGEILPGSGSTNYNEKFKGKATFTADTSSNTAYMQLSSLTSEDSAVYYCARDSSGGFAYWGQGTLVTVSA
VL: DIVLTQSPAIMSASLGERVTMTCTASSNVSSSYLHWYQQKPGSSPKLWIYSTSNLASGVPARFSGSGSGTSYSLTISSMEAEDAATYYCHQYHRSPPTFGAGTKLEIK
On to B1, for which the binding result with hen egg lysozyme [1] is recorded as “binds”.

B2: HEL23 variant 5 (antibody, V domains shown)
VH: B1 VH with G54S, T78I
VL: B1 VL
Regarding B2, the binding result with hen egg lysozyme [2] is on record as “binds”.

B3: HEL23 variant 3 (antibody, V domains shown)
VH: B1 VH with C22S, S84N
VL: B1 VL
On to B3, for which, in the test with hen egg lysozyme [2], the binding result is listed as “binds”.

B4: HEL23 variant 4 (antibody, V domains shown)
VH: B1 VH with L4V, M12K, G54S, G56S, T111S
VL: B1 VL
In the case of B4, the binding result in the test with hen egg lysozyme [2] is listed as “binds”.

B5: HEL23 variant 1 (antibody, V domains shown)
VH: B1 VH with Q5R, S91G, A105V, Q109R
VL: B1 VL
For the molecule B5, the binding result in the test with hen egg lysozyme [3] is reported as “binds”.

These data come from paper PMC6816377 (mAbs, 2019).
